# According to patent US20150082475:
# Molecular target: light-harvesting complex II (LHCII) in thylakoids of the Arabidopsis thaliana stn7 stn8 double mutant
protein,measurement,value
recombinant OsPSTOL1 (OsPSTOL1rec) (protein) MLLCQRASKNAPRIESFLQKQETSNPKRYTLSEVKRMTKSFAHKLGRGGFGTVYKGSLPDGREIAVKMLKDTKGDGEEFINEVAGISKTSHINVVNLLGFSLQGSKRALIYEYMPNGSLDRYSFGDSSVQGDNTLSWDRLFNIIVGIARGLEYLHCHCNIRIVHFDIKPQNILLAQDFCPKISDFGLSKLCHLKESRISINGLRGTPGYIAPEVFSRQYGSASSKSDVYSYGMVVLEMAGAKKNINVSTGSSSKYFPQWLYDNLDQFCCPTGEISSQTTDLVRKMVVVGLWCIQLVPTDRPSMREVLEMLESNGRDLPLPPKGLHHHHHH,"phosphorylation of LHCII, in vitro phosphorylation assay with phosphothreonine-specific immunoblot",recombinant OsPSTOL1 protein restores phosphorylation of the light-harvesting complex II (LHCII) in the Arabidopsis stn7 stn8 double mutant (lane 4)
